{"source": "paper PMC8878492", "key": {"[1]": {"target": "HAdV-D26 penton base (human adenovirus D26 (HAdV-D26))", "assay": "cryo-EM structure"}, "[2]": {"target": "HAdV-D26 hexon (human adenovirus D26 (HAdV-D26))", "assay": "cryo-EM structure"}}, "note": "“And” between values parts separate entries of the source, which are not always exact repeats. Identical values can stand only once.", "data": [{"substance": "HAdV-D26 penton base (natural protein)", "values": [{"measurement": "stoichiometry N", "setting": "[1]", "result": 5, "unit": "subunits"}]}, {"substance": "cleaved N-terminal fragment of HAdV-D26 pre-protein VI (pVIn) (peptide)", "values": [{"measurement": "stoichiometry N (copies of pVIn in a hexon)", "setting": "[2]", "result": "2 and 3"}]}]}
